In the DeepSol protein solubility set:

Assay: soluble on expression in E. coli; label from the status in PepcDB or PDB records
In the case of “MSLYVSKLFTSQQWRELKLISYVTENADAIGVKDKELSKALNISMLTLQTCLTNMQFMKEVGGITYKNGYITIWYHQHCGLQEVYQKALRHSQSFKLLETLFFRDFNSLEELAEELFVSLSTLKRLIKKTNAYLTHTFGITILTSPVQVSGDEHQIRLFYLKYFSEAYKISEWPFGEMLNLKNCERLLSLMIKEVDVRVNFTLFQHLKILSSVNLIRYYKGYSAVYDNKKTSHRFSQLIQSSLEIQDLSRLFYLKFGLYLDETTIAEMFSNHVNDQLEIGYAFDSIKQDSPTGCRKVTNWVHLLDELEIRLNLSVTNKYEVAVILHNTTVLKEEDITANYLFFDYKKSYLNFYKQEHPHLYKAFVAGVEKLMRSEKEPISKELTNQLIYAFFITWENSFLKVNQKDEKIRLLVIERSFNSVGNFLKKYIGEFFSITNFNELDALTIDLEEIEKQYDVIVTDVMVGKSDELEIFFFYKMIPEAIIDKLNCVFKHQLCRQEGHHHHHH”, the “soluble on expression in E. coli” value is reported as “not soluble”.
In the case of “MLRSLLKSRQVICGLRELRALSTSQGNESIIDFVDTVTETSEAQNQSFASLLRNSKFMQLGDFNGRLVVGKIAQRVQEDVYIDFGLKFNAVCKVPALNSEAYRSGARVLIRLIDPELSERFLGSKHDLTLLEADAVLVRLLSNVPRQQQQRQKPRGATEEEAPAAPETPAAH”, the “soluble on expression in E. coli” value is reported as “not soluble”.
With “MGSDKIHHHHHHMTLALGRLDSITLLLPDPELFLYSYVRREAVLSSQIEGTQSTLTQLMLFELEESPGVPFDDVVEVSNYVAALDHGVARLKEGFPLSNRLIREMHTVLLFRGRGSNKGPGEFRRSQNWIGGTRPGNALFVPPPPHLVPQCMADLERFLHDENNPYPSVLKAALAHVQFETIHPFLDGNGRIGRLLIAFILHHDGILSRPLLYLSLYFKRHRETYYRLLDRVRTEGDWEAWTDFFLEGVRETAGNAVDTARRLIALFEADQQKIQSLGRSASSTLQVFQAFKERPLLTVGRISERTGLSFPAANQAVGRMEKKLGIVREITGRRRERAYAYDQYVAILNEGAEE” the “soluble on expression in E. coli” value was “not soluble”.
With “MGSDKIHHHHHHMSQIPVAEKLVGALSSGLAVLRYLAGMPTPVGVTRVARDLELNSSTCFNLLKTLVHEGLVTFDERTKTYTIGIGLVELAKGALDQASFARLLRPQLESIAQQHKVTATLWERTRNERVVLVDLADNPAAMRVHMSIGQRLPMYLAALGRCMAAYSELSADELRTRIESFRWENAPSFEEYYAEVQDVKERGYAVDNGNYVKGVTTVSAPVIDANKRAVMAISAVSFSAQLNRAAIRALGEDLGARAIEASRAISGRVRAA” the “soluble on expression in E. coli” value was “not soluble”.
For “MTLKLTYFDIHGLAEPIRLLLADKQVAYEDHRVTYEQWADIKPKMIFGQVPCLLSGDEEIVQSGAIIRHLARLNGLNGSNETETTFIDMFYEGLRDLHTKYTTMIYRNYEDGKAPYIKDVLPGELARLEKLFHTYKNGEHYVIGDKESYADYVLFEELDIHLILTPNALDGVPALKKFHERFAERPNIKAYLNKRAAINPPVNGNGKQ”, the “soluble on expression in E. coli” value was “not soluble”.
In the case of “GPGSMDPLCSPSAVSINGTPQTSVVNTSSTTSVVASPARPKLNRSVKFDPTIGGPLHSGDLSLDTSFVHGAGGDADAREHYGRRGRADEAATDSPLYSGDVLHEHEELLPFQLTREDVAAAFEFLDVNGSGLLTMGNLKHRLSAFYPHLTSKEYKFLVEDPSGSTGGGGTASSAARSAVAARHGGAADGCGGSTGGPTTSSLAQAASSARPSNLSFDDGGDAVHANGALSGEGVASGVGGSNATSARAGLDVDQLWDLINSFQQLQRTFGAAQAGQAEGQNAQNTRSAFNSSFDAYLVGTHGTQGIRSADIGFDAVGEAFRIYDPHNTHYVEEEVLSCIMARVGFGELTEEELAVLVSTADFDGDGRISLEDFRRLVSMKGRFEK”, the “soluble on expression in E. coli” value is reported as “soluble”.
For “MSLGLPKMEVFQEYYGLPPPPGAIGPFLRLNPGDIVELTKAEAEQNWWEGRNTSTNEIGWFPCNRVKPYVHGPPQDLSVHLWYAGPMERAGAESILANRSDGTFLVRQRVKDAAEFAISIKYNVEVKHIKIMTAEGLYRITEKKAFRGLTELVEFYQQNSLKDCFKSLDTTLQFPFKEPEKRTISRPAVGSTKYFGTAKARYDFCARDRSELSLKEGDIIKILNKKGQQGWWRGEIYGRVGWFPANYVEEDYSEEGHHHHHH”, the “soluble on expression in E. coli” value was “soluble”.
In the case of “MSLSIKLIAVDMDGTFLSDQKTYNRERFMAQYQQMKAQGIRFVVASGNQYYQLISFFPEIANEIAFVAENGGWVVSEGKDVFNGELSKDAFATVVEHLLTRPEVEIIACGKNSAYTLKKYDDAMKTVAEMYYHRLEYVDNFDNLEDIFFKFGLNLSDELIPQVQKALHEAIGDIMVPVHTGNGSIDLIIPGVHKANGLRQLQKLWGIDDSEVVVFGDGGNDIEMLRQAGFSFAMENAGSAVVAAAKYRAGSNNREGVLDVIDKVLKHEAPFKEGHHHHHH”, the “soluble on expression in E. coli” value is reported as “soluble”.
In the case of “MSLKGKIIEKVISKVKCKSDENYKIGLWVRDSTAGIGTLTFYSDKTKVFGALGHPITDVDTGDIINISRGSLIDSSIVSVNKGIRGNPGELRGIFINENKPIGIVKNNTICGLFGKGYEKFEGLQYNKPMEVAMRNEVKLGPAKILTTIDGSQPKMYAINIEKLFDQSSPNPKSMMIKVTDAELLDKTGGIVQGMSGSPIIQNNKVVGAVTHVLINKPDTGYGVYIEWMLKSAGILEGHHHHHH”, the “soluble on expression in E. coli” value is reported as “soluble”.
In the case of “MGSDKIHHHHHHMSIEQLADLTQPQRDRLAFVELRVRFIGEIRRQDLVSRFGIQSAAASRDLALYKELVPGNIDYDSKGKSYVLGPDFRPLFEFPPERVLSWLTQGFGDGEPMQLKAWVASESPSRLARPDLTVLASVTRAIHQGCPLAVEYHSISSGKANRQIVPFALIDDGQRWLVRAFDRESQQFRDFVITRIRNPQVLKGENPAPHEASDQDIQWTRILELDLVPHPNRPHPEISEMDYSMERGVWKMKLRAAMAGYILCKLRVDCSPTHKLNGSEHRLWLRNHLALYGVRSAVLAPGYESPEPVGQEQDGD”, the “soluble on expression in E. coli” value is reported as “not soluble”.
In the case of “MDNNLEIKDLEKIAKKVRYNIVKMVGLAKSGHPGGSLSATDIIVALYFKLMNYSPDNPYKKDRDRFVLSKGHAAPALYAVLSELGIIEEEELWKLRRLEGKLQGHPSMDTPGVEICTGSLGQGFSAAVGMALGCRLDKLNNYVYVLLGDGECQEGIVWEAAMAAAHYKLDNLIAFIDRNKLQIDGCTEDVMSLGDIKAKFEAFGWDVFEIDGHNFEEIINTVEKAKSMKNGKPKMIIAYTVKGKGVSFMENNVAFHGKAPNEEQLKQALEELSE”, the “soluble on expression in E. coli” value is reported as “soluble”.
In the case of “MGSDKIHHHHHHMSKVFIATANAGKAHDADIFSVSACNSFTVSCSGDGYLKVWDNKLLDNENPKDKSYSHFVHKSGLHHVDVLQAIERDAFELCLVATTSFSGDLLFYRITREDETKKVIFEKLDLLDSDMKKHSFWALKWGASNDRLLSHRLVATDVKGTTYIWKFHPFADESNSLTLNWSPTLELQGTVESPMTPSQFATSVDISERGLIATGFNNGTVQISELSTLRPLYNFESQHSMINNSNSIRSVKFSPQGSLLAIAHDSNSFGCITLYETEFGERIGSLSVPTHSSQASLGEFAHSSWVMSLSFNDSGETLCSAGWDGKLRFWDVKTKERITTLNMHCDDIEIEEDILAVDEHGDSLAEPGVFDVKFLKKGWRSGMGADLNESLCCVCLDRSIRWFREAGGK”, the “soluble on expression in E. coli” value is reported as “not soluble”.
With “MDNIVTQNIKFESEPNYYLRGYHLFDISPLNGLKCEITDEFETDKIHLKIKLDWDQQEIKKITGFIQLSYDGHQLKPIDSNFDKRGGICIMTVPKYINAYRWSFSFDLKLHRYPAKPPQISHDLNPQVRSYDTMFEPSRKHDAVLLIGEKKLHVNKAFLSYHSDYFCDLFAEKFDEKNGIPIENVTYENFGLLMSIIYPEAAFSNHQNAEVLLELGNRFKIPAVMRHVENQIIRDTKFPNERLIFLADKYELQKLLAMEIQKMESFDQAKKFKGSDDYSQLSDATKAKILDRLIELS” the “soluble on expression in E. coli” value was “not soluble”.
In the case of “MVDIVKRRDWEKKEKKKIAIERIDTLFTLAERVARYSPDLAKRYVELALEIQKKAKVKIPRKWKRRYCKRCHTFLIPGVNARVRLRTKRMPHVVITCLECGYIMRYPYLREVKQKRKKAT”, the “soluble on expression in E. coli” value is reported as “soluble”.
With “VHADLAATTSREDFRLLAAEHRVVPVTRKVLADSETPLSAYRKLAANRPGTFLLESAENGRSWSRWSFIGAGAPTALTVREGQAVWLGAVPKDAPTGGDPLRALQVTLELLATADRQSEPGLPPLSGGMVGFFAYDMVRRLERLPERAVDDLCLPDMLLLLATDVAAVDHHEGTITLIANAVNWNGTDERVDWAYDDAVARLDVMTAALGQPLPSTVATFSRPEPRHRAQRTVEEYGAIVEYLVDQIAAGEAFQVVPSQRFEMDTDVDPIDVYRILRVTNPSPYMYLLQVPNSDGAVDFSIVGSSPEALVTVHEGWATTHPIAGTRWRGRTDDEDVLLEKELLADDKERAEHLMLVDLGRNDLGRVCTPGTVRVEDYSHIERYSHVMHLVSTVTGKLGEGRTALDAVTACFPAGTLSGAPKVRAMELIEEVEKTRRGLYGGVVGYLDFAGNADFAIAIRTALMRNGTAYVQAGGGVVADSNGSYEYNEARNKARAVLNAIAAAETLAAPGANRSGC” the “soluble on expression in E. coli” value was “soluble”.
For “MGSDKIHHHHHHVPGLLPDVDREGLLEYSVVYTDRSLNHMSQLFQGVMRDISNSLKKVYNAKSAVVVPGSGTFGMEAVARQFATNRKCLVIRNGWFSYRWTQIFDMGGIPSESIVLKARPVEEGRQAAYAPPPIEEVVAAIRENKPDLVFAPHVETASGIMLPDAYLRAVADAVHAVDGMFVLDCIASGTVWVDMKASGVDVLISAPQKGWSASPCCGLVMLGELARERIEGTTSTSFACDLRKWLQIMEAYENGGFAYHATMPTDGLATLRDVMKETEAYGFDKVRAEQVELGRRVRSVLADRGFRSVAAEGFEAPGVVVSYTDDDGIRSGKKFADAGLQIAAGVPLQCDEPQDFKTFRIGLFGLDKLHDVEGAVGRFVKGLGSIL”, the “soluble on expression in E. coli” value was “not soluble”.
In the case of “MGSDKIHHHHHHATKTEQIPVNKTYAACPQNWIGVENKCFYFSEYPSNWTFAQAFCMAQEAQLARFDNQDELNFLMRYKANFDSWIGLHRESSEHPWKWTDNTEYNNTIPIRGEERFAYLNNNGISSTRIYSLRMWICSKL”, the “soluble on expression in E. coli” value is reported as “not soluble”.
With “IVGGKVCPKGECPWQVLLLVNGAQLCGGTLINTIWVVSAAHCFDKIKNWRNLIAVLGEHDLSEHDGDEQSRRVAQVIIPSTYVPGTTNHDIALLRLHQPVVLTDHVVPLCLPERTFSERTLAFVRFSLVSGWGQLLDRGATALELMVLNVPRLMTQDCLQQSRKVGDSPNITEYMFCAGYSDGSKDSCKGDSGGPHATHYRGTWYLTGIVSWGQGCATVGHFGVYTRVSQYIEWLQKLMRSEPRPGVLLRAPFP” the “soluble on expression in E. coli” value was “soluble”.
In the case of “MGSETKHSAKVKIVTRESPPSAKEHMRPTKTQILVPPTQSLPNGKKPNFGKSTKQRREPRERTSKTGHEDDKATMVTVNIDAFLHDKAPKKKSCKYKKKKTRQYQDRAAASIDSKPHVAGHTAFAGASFTTDIPHEAALPKPSFV”, the “soluble on expression in E. coli” value is reported as “soluble”.
For “MSLYQLEDDSLMLHNDLYQINMAESYWNDNIHEKMAVFDLYFRKMPFNSGYAVFNGLKRVIDFIEHFGFSESDLEYLKSIGYKDDFLSYLKDLKFTGSIRSMQEGELCFGNEPLLRVEAPLIQAQLIETILLNIVNFHTLITTKASRIRQIASNDKLMEFGTRRAQEIDAALWGARAAYIGGFDSTSNVRAGKLFGIPVSGTHAHAFVQTYGDEYVAFKKYAERHKNCVFLVDTFHTLKSGVPNAIKVAKELGDKINFVGIRLDSGDIAYLSKEARRMLDEAGFTETKIIASNDLDEETITSLKAQGAKVDSWGVGTKLITGYDQPALGAVYKLVAIENEEGSYSDRIKLSNNAEKVTTPGKKNVYRIINKKTGKAEGDYITLENENPYDEQPLKLFHPVHTYKMKFIKSFEAIDLHHNIYENGKLVYQMPTEDESREYLAQGLQSIWDENKRFLNPQEYPVDLSKACWDNKHKRIFEVAEHVKEMEEDNEEGHHHHHH”, the “soluble on expression in E. coli” value was “soluble”.
